Source: patent publication US6835382B2, “Ii peptide therapeutics to enhance antigen presentation” (University of Massachusetts, priority 1996, dated 2004)
Non-standard residues stand in square brackets, D forms with d. hArg = N=C(N)NCCCC[C@H](N)C(=O)O; Cit = NC(=O)NCCC[C@H](N)C(=O)O; Orn = NCCC[C@H](N)C(=O)O

Target: T1, murine E^d MHC class II allele (Mus musculus, UniProt P01904+P01915)
T1 sequence (P01904 26-255): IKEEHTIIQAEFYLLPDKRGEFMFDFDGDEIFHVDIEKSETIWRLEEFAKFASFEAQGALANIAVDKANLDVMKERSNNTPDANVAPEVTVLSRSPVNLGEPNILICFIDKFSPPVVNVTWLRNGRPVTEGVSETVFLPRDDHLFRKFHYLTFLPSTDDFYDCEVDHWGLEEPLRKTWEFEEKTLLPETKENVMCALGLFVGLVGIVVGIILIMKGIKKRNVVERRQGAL
T1 sequence (P01915 27-264 limits assumed): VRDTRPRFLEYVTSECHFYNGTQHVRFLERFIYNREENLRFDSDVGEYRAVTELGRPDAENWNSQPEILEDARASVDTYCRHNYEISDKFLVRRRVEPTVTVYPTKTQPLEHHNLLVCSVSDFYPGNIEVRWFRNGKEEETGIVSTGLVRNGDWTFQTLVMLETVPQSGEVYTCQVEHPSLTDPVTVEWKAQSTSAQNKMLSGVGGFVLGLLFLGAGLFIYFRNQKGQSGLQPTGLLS
Experiment: antigenic peptide prepulse assay, E^d allele (fixed APC prepulsed with HEL106-116)
Format: cell-based
Parameters: The A20 and CH27 B cell lymphoma lines express H-2^d and H-2^k alleles, respectively; endogenous in cells; host or cells: A20 B cell lymphoma (mitomycin C-treated or paraformaldehyde-fixed)
Details: for Activity in antigenic peptide prepulse assay, E^d (baseline = 1): Table 23, as printed: antigenic peptide prepulse 64 μM, AE peptide 1:4 μM; for Activity in antigenic peptide prepulse assay, E^d (baseline = 1.00) / Activity in antigenic peptide prepulse assay, E^d (baseline = 1.0) / Activity in antigenic peptide prepulse assay, E^d (baseline without AE peptide = 1.00): AE peptide 64 μM; for T cell response relative to baseline without AE peptide (None = 1.0), E^d: Table 27, antigenic peptide prepulse 24 μM, AE101 series peptide 64 μM, HT-2 supernatant dilution 1:8; for Activity in antigenic peptide prepulse assay, E^d (baseline without AE peptide = 1.00): Table 19, prepulse 12 μM HEL106-116
Method: In a second type of assay, the “peptide prepulse assay”, the antigenic peptide is incubated with paraformaldehyde-fixed APC for 6 h. The APC are washed and incubated for 24 h with the AE101 series homolog and the T cell hybridoma specific for the antigenic peptide. After that incubation, an aliquot of the culture supernatant is transferred to a second culture to measure the relative degree of T hybridoma stimulation, as reflected in the effect of released interleukins on the growth of an interleukin-dependent, indicator cell line, as described above.
The two above described assays measure different aspects of the molecular mechanism of the AE101 series of peptides. In the “simultaneous assay”, AE101 series peptides are thought to induce the release of endogenously bound peptides and to permit the binding of the second, specific antigenic peptide which is relatively abundant in the culture fluid. The AE101 series peptides enhance antigenic peptide-specific T cell responses in simultaneous assays. In the “peptide prepulse” assay, the specific antigenic peptide becomes bound to MHC class II molecules on the surface of the fixed APC during the 6 h prepulse incubation. The effect of the AE101 series homologs is then thought to release that antigenic peptide, resulting in an apparent suppression of the immune response.
The AE101 series peptides are thought to contact the MHC class II molecules at a discrete site outside the antigenic peptide-binding groove. AE101 peptide binding to this “Ii-KEY” site is thought to induce a conformational change in the MHC class II molecules accelerating the dissociation of previously bound antigenic peptide. […] The AE101 series peptides thus inhibit antigenic peptide-specific T cell responses in the “peptide prepulse” assays.
Antigenic peptide-specific T cell activation was measured by the following procedure. Mitomycin C-treated A20 cells (A^dE^d) or CH27 cells APC (A^kE^k) were generated by incubating 5×10^6 cells/mL for 20 min at 37° C. with 0.025 mg/mL of mitomycin C (Sigma) in Dulbecco's Modified Eaglel's Medium (DMEM)/10 mM N-2(hydroxyethylpiperazine-N″[2-ethanesulfonic acid] (HEPES), followed by two washes with four volumes of DMEM-5% fetal calf serum (FCS), 10 mM HEPES. Fixed APC were generated by treating 1×10^6 cells/mL for 5 min with 0.5% paraformaldehyde in PBS (pH 7.2), followed by two washes with four volumes of DMEM-10% FCS, 10 mM HEPES. T cell hybridomas were irradiated 2200 rads before each assay.
The “peptide prepulse assay” was carried out under essentially the same conditions as described for the “simultaneous assay” with the following modifications. Fixed APC were first incubated for 6 h at 1×10^6 cells/mL in complete DMEM-5% FCS in 24-well microculture plates (1 mL/well) with antigenic peptide, followed by four washes with 10 volumes of DMEM-5% FCS. The cells were then exposed to varying concentrations of AE101 series peptide (64 μM, 16 μM, 4 μM, and 1 μM) for 24 h in the presence of the T cell hybridoma specific to the antigenic peptide. Interleukin release from these cultures was measured by proliferation of HT-2 cells to interleukins in supernatants transferred from the primary culture. Generally, a single dose of 64 μM of each AE101 series peptide was used. The baseline T cell response was measured by culturing T hybridoma cells with the antigenic peptide-prepulsed APC in the absence of AE101 series peptides.
[…] […] Paraformaldehyde-treated APC (fixed APC) expressing MHC class II molecules were incubated with antigenic peptide for 6 h (HEL106-116 for E^d and PGCC81-104 for E^k). After this incubation, the prepulsed APC were washed and cultured with T hybridoma cells and AE101 series peptides. […] The AE101 series peptide concentrations were 64 μM for E^d and 16 μM for E^k. The dilutions of supernatant taken into the HT-2 cell assay were 1:4 for Ed and 1:2 for E^k.

[1] = Table 24, prepulse 24 μM antigenic peptide, supernatant 1:4
[2] = Table 25, prepulse 24 μM antigenic peptide, supernatant 1:4
[3] = Table 22, prepulse 6 μM antigenic peptide, supernatant 1:8
[4] = Table 26, prepulse 24 μM antigenic peptide, supernatant 1:2
[5] = Table 28, prepulse 24 μM antigenic peptide, supernatant 1:4
[6] = Table 20, prepulse 3 μM antigenic peptide, supernatant 1:2

With Ac- (mL) RMKLPK-NH2 [AE174] the “Activity in antigenic peptide prepulse assay, E^d (baseline = 1)” value (from here on “Activity … (baseline = 1)”) (supernatant 1:8) was 0.6 and the “Activity in antigenic peptide prepulse assay, E^d (baseline = 1.00)” value (“Activity … (baseline = 1.00)” below) [1] was 0.60.
With Ac-ARMKLPKSAK-NH2 [AE120] the “Activity … (baseline = 1.00)” value [2] was 0.63.
Ac-ARMKNPK-NH2 [AE345] was tested, and the “Activity … (baseline = 1.00)” value [2] was 0.61.
For Ac-ARNKLPK-NH2 [AE344], the “Activity … (baseline = 1.00)” value [2] was 0.46.
For Ac-ARNKNPF-NH2 [AE347], the “Activity … (baseline = 1.00)” value [2] was 0.64.
With Ac-ARNKNPK-NH2 [AE346] the “Activity … (baseline = 1.00)” value [2] was 0.65.
With Ac-L r MKLPK-NH2 [AE161] the “Activity … (baseline = 1.00)” value [3] was 0.30.
For Ac-LR (mL) KLPK-NH2 [AE302], the “Activity … (baseline = 1.00)” value [1] was 0.82.
For Ac-LR (mL) KYPK-NH2 [AE303], the “Activity … (baseline = 1.00)” value [1] was 0.78.
For Ac-LR (mL) KYPk-NH2 [AE305], the “Activity … (baseline = 1.00)” value [1] was 0.72.
For Ac-LR (mL) KyPK-NH2 [AE304], the “Activity … (baseline = 1.00)” value [1] was 0.78.
With Ac-LR (mL) KyPk-NH2 [AE306] the “Activity … (baseline = 1.00)” value [1] was 0.68.
For Ac-LR HArg KLPK-NH2 [AE197], the “Activity in antigenic peptide prepulse assay, E^d (baseline = 1.0)” value (from here on “Activity … (baseline = 1.0)”) [4] was 0.32.
“Ac-LR L KLPK-NH2 (Ac-LRLKLPK-NH2; not fully specified; printed as Ac-LR L KLPK-NH2) [AE206]” was tested, and the “Activity … (baseline = 1.00)” value [1] was 0.52, the “Activity … (baseline = 1.00)” value [2] was 0.18 and the “Activity … (baseline = 1.0)” value [4] was 0.38.
“Ac-LR N KLPK-NH2 (Ac-LRNKLPK-NH2) [AE202]” was tested, and the “Activity … (baseline = 1.00)” value [2] was 0.30.
With Ac-LR m KLPK-NH2 [AE162] the “Activity … (baseline = 1.00)” value [3] was 0.28.
For Ac-LRLK HArg PK-NH2 [AE341], the “Activity … (baseline = 1.00)” value [2] was 0.12.
Ac-LRLKWPK-NH2 [AE309] was tested, and the “Activity … (baseline = 1.00)” value [1] was 0.44, the “Activity … (baseline = 1.00)” value [2] was 0.48 and the “Activity … (baseline = 1.0)” value [4] was 0.25.
In the case of Ac-LRLKYPK-NH2 [AE301], the “Activity … (baseline = 1.00)” value [1] was 0.48, the “Activity … (baseline = 1.00)” value [2] was 0.66 and the “Activity … (baseline = 1.0)” value [4] was 0.34.
Ac-LRLKYPk-NH2 [AE307] was tested, and the “Activity … (baseline = 1.00)” value [1] was 0.59.
For Ac-LRLKyPK-NH2 [AE308], the “Activity … (baseline = 1.00)” value [1] was 0.93.
In the case of “Ac-LRM M LPK-NH2 (Ac-LRMMLPK-NH2) [AE220]”, the “Activity … (baseline = 1.0)” value [4] was 0.73.
Ac-LRM k LPK-NH2 [AE163] was tested, and the “Activity … (baseline = 1.00)” value [3] was 0.39.
Ac-LRMK (mL) PK-NH2 [AE175] was tested, and the “Activity … (baseline = 1)” value (supernatant 1:8) was 0.7 and the “Activity … (baseline = 1.00)” value [1] was 0.70.
In the case of “Ac-LRMK HArg PK-NH2 (Ac-LRMK[hArg]PK-NH2; SMILES CSCC[C@H](NC(=O)[C@H](CCCNC(=N)N)NC(=O)[C@H](CC(C)C)NC(C)=O)C(=O)N[C@@H](CCCCN)C(=O)N[C@@H](CCCCNC(=N)N)C(=O)N1CCC[C@H]1C(=O)N[C@@H](CCCCN)C(N)=O) [AE227]”, the “Activity … (baseline = 1.00)” value [2] was 0.28.
With “Ac-LRMK N PK-NH2 (Ac-LRMKNPK-NH2) [AE232]” the “Activity … (baseline = 1.00)” value [2] was 0.44.
“Ac-LRMK Y PK-NH2 (Ac-LRMKYPK-NH2; not fully specified; printed as Ac-LRMK Y PK-NH2) [AE235]” was tested, and the “Activity … (baseline = 1.00)” value [1] was 0.30, the “Activity … (baseline = 1.00)” value [2] was 0.25 and the “Activity … (baseline = 1.0)” value [4] was 0.23. For the same substance, the “T cell response relative to baseline without AE peptide (None = 1.0), E^d” value was 0.40 and the “Activity … (baseline = 1.0)” value [5] was 0.30.
For Ac-LRMK l PK-NH2 [AE164], the “Activity … (baseline = 1.00)” value [3] was 0.37 and the “Activity … (baseline = 1.00)” value [1] was 0.59.
In the case of Ac-LRMKL p K-NH2 [AE165], the “Activity … (baseline = 1.00)” value [3] was 0.25.
In the case of “Ac-LRMKLP F-NH2 (Ac-LRMKLPF-NH2) [AE248]”, the “Activity … (baseline = 1.00)” value [2] was 0.63.
For “Ac-LRMKLP N-NH2 (Ac-LRMKLPN-NH2) [AE246]”, the “Activity … (baseline = 1.0)” value [4] was 0.69.
With Ac-LRMKLP k-NH2 [AE166] the “Activity … (baseline = 1.00)” value [3] was 0.11 and the “Activity … (baseline = 1.00)” value [1] was 0.65.
In the case of Ac-LRMKLPK-NH2 [AE114], the “Activity … (baseline = 1.00)” value [3] was 0.02, the “Activity … (baseline = 1)” value (supernatant 1:8) was 0.41 and the “Activity … (baseline = 1.00)” value [1] was 0.41. For the same substance, the “Activity … (baseline = 1.00)” value [2] was 0.31, the “Activity … (baseline = 1.0)” value [4] was 0.28 and the “T cell response relative to baseline without AE peptide (None = 1.0), E^d” value was 0.32. The “Activity … (baseline = 1.0)” value [5] was 0.41.
With Ac-LRMKLPKPPK-NH2 [AE168] the “Activity in antigenic peptide prepulse assay, E^d (baseline without AE peptide = 1.00)” value (supernatant 1:4) was 0.10.
In the case of Ac-LRMKLPKPPP-NH2 [AE167], the “Activity in antigenic peptide prepulse assay, E^d (baseline without AE peptide = 1.00)” value (supernatant 1:4) was 0.23.
Ac-LRMKLP[Cit]-NH2 [AE241] was tested, and the “Activity … (baseline = 1.0)” value [4] was 0.70.
For Ac-LRNKNPF-NH2 [AE348], the “Activity … (baseline = 1.00)” value [2] was 0.39.
With Ac-LRNKNPK-NH2 [AE349] the “Activity … (baseline = 1.00)” value [2] was 0.69.
In the case of Ac-LR[Orn]KLPK-NH2 [AE195], the “Activity … (baseline = 1.00)” value [2] was 0.41.
Ac-L[Cit]MKNPK-NH2 [AE342] was tested, and the “Activity … (baseline = 1.00)” value [2] was 0.67.
Ac-L[Cit]NKLPK-NH2 [AE343] was tested, and the “Activity … (baseline = 1.00)” value [2] was 0.55.
Ac-Y D MKLPKSAK-NH2 [AE135] was tested, and the “Activity … (baseline = 1.00)” value [6] was 0.70.
Ac-Y E MKLPKSAK-NH2 [AE136] was tested, and the “Activity … (baseline = 1.00)” value [6] was 0.54.
For Ac-Y F MKLPKSAK-NH2 [AE139], the “Activity … (baseline = 1.00)” value [6] was 0.67.
With Ac-Y H MKLPKSAK-NH2 [AE133] the “Activity … (baseline = 1.00)” value [6] was 0.39.
In the case of Ac-Y K MKLPKSAK-NH2 [AE134], the “Activity … (baseline = 1.00)” value [6] was 0.60 and the “Activity … (baseline = 1.0)” value [4] was 0.83.
For Ac-Y L MKLPKSAK-NH2 [AE142], the “Activity … (baseline = 1.00)” value [6] was 0.86.
With Ac-Y M MKLPKSAK-NH2 [AE141] the “Activity … (baseline = 1.00)” value [6] was 0.41.
In the case of Ac-Y N MKLPKSAK-NH2 [AE137], the “Activity … (baseline = 1.00)” value [6] was 0.57.
